Measurements: patent US20170224620A1 (Pfizer, published 2017)
Bridges are numbered along the chain shown (N, C = ends). Where no end group is shown, it is not given here. [ ]: non-standard residue; d: D form. hCys = N[C@@H](CCS)C(=O)O; F(pg) = not defined here; Pra = C#CC[C@H](N)C(=O)O

B1: P2-21 (peptide)
peptide: H-[Pra]ACTWEVWGREC-NH2
modifications: disulfide 3-12
SMILES: C#CC[C@H](N)C(=O)N[C@@H](C)C(=O)N[C@H]1CSSC[C@@H](C(N)=O)NC(=O)[C@H](CCC(=O)O)NC(=O)[C@H](CCCNC(=N)N)NC(=O)CNC(=O)[C@H](Cc2c[nH]c3ccccc23)NC(=O)[C@H](C(C)C)NC(=O)[C@H](CCC(=O)O)NC(=O)[C@H](Cc2c[nH]c3ccccc23)NC(=O)[C@H]([C@@H](C)O)NC1=O
B2: P2-23 (peptide)
peptide: H-[Pra]CTWEVWGREC-NH2
modifications: disulfide 2-11
SMILES: C#CC[C@H](N)C(=O)N[C@H]1CSSC[C@@H](C(N)=O)NC(=O)[C@H](CCC(=O)O)NC(=O)[C@H](CCCNC(=N)N)NC(=O)CNC(=O)[C@H](Cc2c[nH]c3ccccc23)NC(=O)[C@H](C(C)C)NC(=O)[C@H](CCC(=O)O)NC(=O)[C@H](Cc2c[nH]c3ccccc23)NC(=O)[C@H]([C@@H](C)O)NC1=O
B3: P2-50 (peptide)
peptide: H-DPCTWEVWGRE[hCys]LQGG[Pra]G-NH2
modifications: disulfide 3-12
SMILES: C#CC[C@H](NC(=O)CNC(=O)CNC(=O)[C@H](CCC(N)=O)NC(=O)[C@H](CC(C)C)NC(=O)[C@@H]1CCSSC[C@H](NC(=O)[C@@H]2CCCN2C(=O)[C@@H](N)CC(=O)O)C(=O)N[C@@H]([C@@H](C)O)C(=O)N[C@@H](Cc2c[nH]c3ccccc23)C(=O)N[C@@H](CCC(=O)O)C(=O)N[C@@H](C(C)C)C(=O)N[C@@H](Cc2c[nH]c3ccccc23)C(=O)NCC(=O)N[C@@H](CCCNC(=N)N)C(=O)N[C@@H](CCC(=O)O)C(=O)N1)C(=O)NCC(N)=O
B4: P2-25 (peptide)
peptide: H-DPCVWEVWGRECLQGG[Pra]G-NH2
modifications: disulfide 3-12
SMILES: C#CC[C@H](NC(=O)CNC(=O)CNC(=O)[C@H](CCC(N)=O)NC(=O)[C@H](CC(C)C)NC(=O)[C@@H]1CSSC[C@H](NC(=O)[C@@H]2CCCN2C(=O)[C@@H](N)CC(=O)O)C(=O)N[C@@H](C(C)C)C(=O)N[C@@H](Cc2c[nH]c3ccccc23)C(=O)N[C@@H](CCC(=O)O)C(=O)N[C@@H](C(C)C)C(=O)N[C@@H](Cc2c[nH]c3ccccc23)C(=O)NCC(=O)N[C@@H](CCCNC(=N)N)C(=O)N[C@@H](CCC(=O)O)C(=O)N1)C(=O)NCC(N)=O
B5: P2-26 (peptide)
peptide: H-DPCSWEVWGRECLQGG[Pra]G-NH2
modifications: disulfide 3-12
SMILES: C#CC[C@H](NC(=O)CNC(=O)CNC(=O)[C@H](CCC(N)=O)NC(=O)[C@H](CC(C)C)NC(=O)[C@@H]1CSSC[C@H](NC(=O)[C@@H]2CCCN2C(=O)[C@@H](N)CC(=O)O)C(=O)N[C@@H](CO)C(=O)N[C@@H](Cc2c[nH]c3ccccc23)C(=O)N[C@@H](CCC(=O)O)C(=O)N[C@@H](C(C)C)C(=O)N[C@@H](Cc2c[nH]c3ccccc23)C(=O)NCC(=O)N[C@@H](CCCNC(=N)N)C(=O)N[C@@H](CCC(=O)O)C(=O)N1)C(=O)NCC(N)=O
B6: P2-32 (peptide)
peptide: H-DPCTWRVWGRECLQGG[Pra]G-NH2
modifications: disulfide 3-12
SMILES: C#CC[C@H](NC(=O)CNC(=O)CNC(=O)[C@H](CCC(N)=O)NC(=O)[C@H](CC(C)C)NC(=O)[C@@H]1CSSC[C@H](NC(=O)[C@@H]2CCCN2C(=O)[C@@H](N)CC(=O)O)C(=O)N[C@@H]([C@@H](C)O)C(=O)N[C@@H](Cc2c[nH]c3ccccc23)C(=O)N[C@@H](CCCNC(=N)N)C(=O)N[C@@H](C(C)C)C(=O)N[C@@H](Cc2c[nH]c3ccccc23)C(=O)NCC(=O)N[C@@H](CCCNC(=N)N)C(=O)N[C@@H](CCC(=O)O)C(=O)N1)C(=O)NCC(N)=O
B7: P2-33 (peptide)
peptide: H-DPCTWGVWGRECLQGG[Pra]G-NH2
modifications: disulfide 3-12
SMILES: C#CC[C@H](NC(=O)CNC(=O)CNC(=O)[C@H](CCC(N)=O)NC(=O)[C@H](CC(C)C)NC(=O)[C@@H]1CSSC[C@H](NC(=O)[C@@H]2CCCN2C(=O)[C@@H](N)CC(=O)O)C(=O)N[C@@H]([C@@H](C)O)C(=O)N[C@@H](Cc2c[nH]c3ccccc23)C(=O)NCC(=O)N[C@@H](C(C)C)C(=O)N[C@@H](Cc2c[nH]c3ccccc23)C(=O)NCC(=O)N[C@@H](CCCNC(=N)N)C(=O)N[C@@H](CCC(=O)O)C(=O)N1)C(=O)NCC(N)=O
B8: P2-36 (peptide)
peptide: H-DPCTWEIWGRECLQGG[Pra]G-NH2
modifications: disulfide 3-12
SMILES: C#CC[C@H](NC(=O)CNC(=O)CNC(=O)[C@H](CCC(N)=O)NC(=O)[C@H](CC(C)C)NC(=O)[C@@H]1CSSC[C@H](NC(=O)[C@@H]2CCCN2C(=O)[C@@H](N)CC(=O)O)C(=O)N[C@@H]([C@@H](C)O)C(=O)N[C@@H](Cc2c[nH]c3ccccc23)C(=O)N[C@@H](CCC(=O)O)C(=O)N[C@@H]([C@@H](C)CC)C(=O)N[C@@H](Cc2c[nH]c3ccccc23)C(=O)NCC(=O)N[C@@H](CCCNC(=N)N)C(=O)N[C@@H](CCC(=O)O)C(=O)N1)C(=O)NCC(N)=O
B9: P2-37 (peptide)
peptide: H-DPCTWELWGRECLQGG[Pra]G-NH2
modifications: disulfide 3-12
SMILES: C#CC[C@H](NC(=O)CNC(=O)CNC(=O)[C@H](CCC(N)=O)NC(=O)[C@H](CC(C)C)NC(=O)[C@@H]1CSSC[C@H](NC(=O)[C@@H]2CCCN2C(=O)[C@@H](N)CC(=O)O)C(=O)N[C@@H]([C@@H](C)O)C(=O)N[C@@H](Cc2c[nH]c3ccccc23)C(=O)N[C@@H](CCC(=O)O)C(=O)N[C@@H](CC(C)C)C(=O)N[C@@H](Cc2c[nH]c3ccccc23)C(=O)NCC(=O)N[C@@H](CCCNC(=N)N)C(=O)N[C@@H](CCC(=O)O)C(=O)N1)C(=O)NCC(N)=O
B10: P2-38 (peptide)
peptide: H-DPCTWETWGRECLQGG[Pra]G-NH2
modifications: disulfide 3-12
SMILES: C#CC[C@H](NC(=O)CNC(=O)CNC(=O)[C@H](CCC(N)=O)NC(=O)[C@H](CC(C)C)NC(=O)[C@@H]1CSSC[C@H](NC(=O)[C@@H]2CCCN2C(=O)[C@@H](N)CC(=O)O)C(=O)N[C@@H]([C@@H](C)O)C(=O)N[C@@H](Cc2c[nH]c3ccccc23)C(=O)N[C@@H](CCC(=O)O)C(=O)N[C@@H]([C@@H](C)O)C(=O)N[C@@H](Cc2c[nH]c3ccccc23)C(=O)NCC(=O)N[C@@H](CCCNC(=N)N)C(=O)N[C@@H](CCC(=O)O)C(=O)N1)C(=O)NCC(N)=O
B11: P2-39 (peptide)
peptide: H-DPCTWEVAGRECLQGG[Pra]G-NH2
modifications: disulfide 3-12
SMILES: C#CC[C@H](NC(=O)CNC(=O)CNC(=O)[C@H](CCC(N)=O)NC(=O)[C@H](CC(C)C)NC(=O)[C@@H]1CSSC[C@H](NC(=O)[C@@H]2CCCN2C(=O)[C@@H](N)CC(=O)O)C(=O)N[C@@H]([C@@H](C)O)C(=O)N[C@@H](Cc2c[nH]c3ccccc23)C(=O)N[C@@H](CCC(=O)O)C(=O)N[C@@H](C(C)C)C(=O)N[C@@H](C)C(=O)NCC(=O)N[C@@H](CCCNC(=N)N)C(=O)N[C@@H](CCC(=O)O)C(=O)N1)C(=O)NCC(N)=O
B12: P2-40 (peptide)
peptide: H-DPCTWEVFGRECLQGG[Pra]G-NH2
modifications: disulfide 3-12
SMILES: C#CC[C@H](NC(=O)CNC(=O)CNC(=O)[C@H](CCC(N)=O)NC(=O)[C@H](CC(C)C)NC(=O)[C@@H]1CSSC[C@H](NC(=O)[C@@H]2CCCN2C(=O)[C@@H](N)CC(=O)O)C(=O)N[C@@H]([C@@H](C)O)C(=O)N[C@@H](Cc2c[nH]c3ccccc23)C(=O)N[C@@H](CCC(=O)O)C(=O)N[C@@H](C(C)C)C(=O)N[C@@H](Cc2ccccc2)C(=O)NCC(=O)N[C@@H](CCCNC(=N)N)C(=O)N[C@@H](CCC(=O)O)C(=O)N1)C(=O)NCC(N)=O
B13: P2-49 (peptide)
peptide: H-DPCTWEVWGRDCLQGG[Pra]G-NH2
modifications: disulfide 3-12
SMILES: C#CC[C@H](NC(=O)CNC(=O)CNC(=O)[C@H](CCC(N)=O)NC(=O)[C@H](CC(C)C)NC(=O)[C@@H]1CSSC[C@H](NC(=O)[C@@H]2CCCN2C(=O)[C@@H](N)CC(=O)O)C(=O)N[C@@H]([C@@H](C)O)C(=O)N[C@@H](Cc2c[nH]c3ccccc23)C(=O)N[C@@H](CCC(=O)O)C(=O)N[C@@H](C(C)C)C(=O)N[C@@H](Cc2c[nH]c3ccccc23)C(=O)NCC(=O)N[C@@H](CCCNC(=N)N)C(=O)N[C@@H](CC(=O)O)C(=O)N1)C(=O)NCC(N)=O

Target: T1, Fc tagged recombinant human EGFR (rhEGFR-Fc, R&D systems, Cat#344-ER-050) (human, UniProt P00533 25-645)
T1 construct: Bought protein; also called apo-EGFR; not shown: Fc tag
Experiment: SPR
Experimental: Surface plasmon resonance (SPR) binding studies were carried out on a Biacore T200 instrument (GE Healthcare). […] The contact time and resulting amount of rhEGFR-Fc capture was varied based on the nature of the analyte, namely whether it was a peptide or nanoparticle.
Peptide binding assays were carried out in 10 mM PBS buffer supplemented with 0.05% surfactant P20 and 5% DMSO by volume, at 25° C. Peptides were injected over the rhEGFR-Fc surface for 60 s, followed by dissociation (buffer injection) for 60 s and regeneration with a 10 s pulse of 3M MgCl₂. A fresh rhEGFR-Fc surface was generated for each concentration of each peptide tested. Peptide binding data was analyzed by fitting to a 1:1 Langmuir kinetic model to obtain the on-rate (kₐ), off-rate (kd) and/or equilibrium binding constant (KD) of the interaction.

Row | Binder | KD/P2 KD | further results
1 | B1 | 6.7 ratio | –
2 | B2 | 4.5 ratio | –
3 | B3 | – | Result (affinity relative to KD of P2): 4.56 ratio
4 | B4 | 1.1 ratio | –
5 | B5 | 1.68 ratio | –
6 | H-DPCTFEVWGRECLQGG[Pra]G-NH2 (disulfide 3-12) [P2-29] | 9.24 ratio | –
7 | B6 | 1.21 ratio | –
8 | B7 | 42.7 ratio | –
9 | B8 | 3.48 ratio | –
10 | B9 | 10.1 ratio | –
11 | B10 | 12.3 ratio | –
12 | B11 | – | binding result: no binding
13 | B12 | – | binding result: binds
14 | H-DPCTWEVWGAECLQGG[Pra]G-NH2 (disulfide 3-12) [P2-45] | – | binding result: binds
15 | H-DPCTWEVWGKECLQGG[Pra]G-NH2 (disulfide 3-12) [P2-46] | 13.9 ratio | –
16 | H-DPCTWEVWG[F(pg)]ECLQGG[Pra]G-NH2 (disulfide 3-12; reading uncertain) [P2-47] | 37.1 ratio | –
17 | B13 | 3.39 ratio | –
18 | DPATWEVWGRECLQ-{propargyl glycine moiety (p-0168)} (not fully specified (N-terminus), also called P2 Ala scan, AA position 3) [P2-3] | – | binding result: no binding
